The values below come from patent EP0323740A2, “Linear analogs of atrial natriuretic peptides” (CALIFORNIA BIOTECHNOLOGY, INC., priority 1987, dated 1989).

The experiment has as its target T1, ANP-receptor (Bos taurus, UniProt P10730).
T1 construct: endogenous in cells; host or cells: cultured BASM cells
T1 sequence (P10730 42-537): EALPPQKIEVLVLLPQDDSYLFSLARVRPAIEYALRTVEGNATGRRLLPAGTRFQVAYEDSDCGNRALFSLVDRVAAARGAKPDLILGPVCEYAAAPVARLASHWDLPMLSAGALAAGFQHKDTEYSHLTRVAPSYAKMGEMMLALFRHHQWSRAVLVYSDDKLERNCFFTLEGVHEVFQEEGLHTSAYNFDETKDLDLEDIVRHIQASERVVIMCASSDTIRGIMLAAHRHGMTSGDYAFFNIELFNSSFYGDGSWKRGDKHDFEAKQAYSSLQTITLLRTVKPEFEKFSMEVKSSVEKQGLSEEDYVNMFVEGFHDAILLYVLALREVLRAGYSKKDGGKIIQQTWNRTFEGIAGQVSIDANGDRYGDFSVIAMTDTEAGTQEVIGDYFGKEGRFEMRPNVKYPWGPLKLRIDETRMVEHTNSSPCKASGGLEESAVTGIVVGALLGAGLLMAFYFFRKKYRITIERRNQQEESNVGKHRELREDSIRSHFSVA
Put plainly: competitive displacement receptor binding assay with (¹²⁵I)-rANP(126-150) on cultured cells. More on the design: species or system bovine. The conditions noted are these: concentration of unlabeled peptide displacing 50% of maximal binding of 0.5 nM (¹²⁵I)-rANP(126-150); BASM cells; read-out: Ki(app). The source says: Analogous "competitive displacement" receptor binding assays are considered commonplace in the art for examining specific ligand-receptor interactions.
Assuming these ANP analogs act at one or more ANP receptor sites, then increased receptor affinity should reflect increased biological potency.

Where only a bound is given, the exact number is not on record here.

parathyroid hormone: the Ki was greater than 500 nM.

Regarding `CC[C@H](C)[C@H](NC(=O)[C@H](Cc1ccc(O)cc1)NC(=O)[C@@H](NC(=O)[C@H](CCCNC(=N)N)NC(=O)[C@@H](N)CC(=O)O)C(C)C)C(=O)N[C@@H](Cc1cnc[nH]1)C(=O)N1CCC[C@H]1C(=O)N[C@@H](Cc1ccccc1)C(=O)O` [angiotensin II], the Ki was greater than 500 nM.
